# T1: Csy complex (Cas8f, Cas5f, Cas7f, Cas6f, crRNA) (Pseudomonas aeruginosa, UniProt Q02ML9;Q02MM0;Q02MM1;Q02MM2 1-434;1-327;1-342;1-187)
# T1 sequence 1: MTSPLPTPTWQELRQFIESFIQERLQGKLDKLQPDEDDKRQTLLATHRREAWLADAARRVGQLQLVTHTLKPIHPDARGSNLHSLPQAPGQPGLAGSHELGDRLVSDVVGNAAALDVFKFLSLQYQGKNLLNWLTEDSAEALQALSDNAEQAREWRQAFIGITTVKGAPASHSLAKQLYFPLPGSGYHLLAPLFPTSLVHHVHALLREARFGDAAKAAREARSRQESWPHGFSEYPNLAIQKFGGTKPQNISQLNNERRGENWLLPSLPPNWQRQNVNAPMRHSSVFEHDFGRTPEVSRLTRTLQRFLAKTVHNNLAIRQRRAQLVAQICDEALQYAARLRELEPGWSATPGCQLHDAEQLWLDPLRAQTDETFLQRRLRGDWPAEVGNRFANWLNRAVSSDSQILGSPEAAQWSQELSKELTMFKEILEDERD
# T1 sequence 2: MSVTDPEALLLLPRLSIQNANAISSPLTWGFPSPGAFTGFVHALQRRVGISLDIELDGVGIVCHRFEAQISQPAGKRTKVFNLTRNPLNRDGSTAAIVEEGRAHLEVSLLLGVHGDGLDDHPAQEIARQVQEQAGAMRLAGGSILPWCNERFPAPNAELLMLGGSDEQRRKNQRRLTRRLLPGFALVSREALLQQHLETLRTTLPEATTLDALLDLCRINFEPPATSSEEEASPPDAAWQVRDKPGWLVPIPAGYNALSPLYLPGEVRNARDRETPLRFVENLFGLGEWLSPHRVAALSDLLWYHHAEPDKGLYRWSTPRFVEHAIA
# T1 sequence 3: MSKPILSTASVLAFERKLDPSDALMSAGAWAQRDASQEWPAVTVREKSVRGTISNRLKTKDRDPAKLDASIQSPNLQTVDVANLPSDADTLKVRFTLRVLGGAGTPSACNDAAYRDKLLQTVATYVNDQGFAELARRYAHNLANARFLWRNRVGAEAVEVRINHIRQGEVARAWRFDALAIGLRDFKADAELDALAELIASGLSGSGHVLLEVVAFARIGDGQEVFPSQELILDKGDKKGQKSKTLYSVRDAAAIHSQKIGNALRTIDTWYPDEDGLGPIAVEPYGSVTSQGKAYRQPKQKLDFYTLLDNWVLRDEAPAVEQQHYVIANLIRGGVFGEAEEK
# T1 sequence 4: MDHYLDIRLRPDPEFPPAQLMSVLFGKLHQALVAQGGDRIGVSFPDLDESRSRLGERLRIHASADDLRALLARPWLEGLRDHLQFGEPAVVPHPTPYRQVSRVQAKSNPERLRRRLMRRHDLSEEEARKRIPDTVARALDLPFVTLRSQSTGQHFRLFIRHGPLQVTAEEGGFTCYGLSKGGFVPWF
# T2: Cas2/3 (UniProt Q02ML8 1-1076)
# T2 sequence: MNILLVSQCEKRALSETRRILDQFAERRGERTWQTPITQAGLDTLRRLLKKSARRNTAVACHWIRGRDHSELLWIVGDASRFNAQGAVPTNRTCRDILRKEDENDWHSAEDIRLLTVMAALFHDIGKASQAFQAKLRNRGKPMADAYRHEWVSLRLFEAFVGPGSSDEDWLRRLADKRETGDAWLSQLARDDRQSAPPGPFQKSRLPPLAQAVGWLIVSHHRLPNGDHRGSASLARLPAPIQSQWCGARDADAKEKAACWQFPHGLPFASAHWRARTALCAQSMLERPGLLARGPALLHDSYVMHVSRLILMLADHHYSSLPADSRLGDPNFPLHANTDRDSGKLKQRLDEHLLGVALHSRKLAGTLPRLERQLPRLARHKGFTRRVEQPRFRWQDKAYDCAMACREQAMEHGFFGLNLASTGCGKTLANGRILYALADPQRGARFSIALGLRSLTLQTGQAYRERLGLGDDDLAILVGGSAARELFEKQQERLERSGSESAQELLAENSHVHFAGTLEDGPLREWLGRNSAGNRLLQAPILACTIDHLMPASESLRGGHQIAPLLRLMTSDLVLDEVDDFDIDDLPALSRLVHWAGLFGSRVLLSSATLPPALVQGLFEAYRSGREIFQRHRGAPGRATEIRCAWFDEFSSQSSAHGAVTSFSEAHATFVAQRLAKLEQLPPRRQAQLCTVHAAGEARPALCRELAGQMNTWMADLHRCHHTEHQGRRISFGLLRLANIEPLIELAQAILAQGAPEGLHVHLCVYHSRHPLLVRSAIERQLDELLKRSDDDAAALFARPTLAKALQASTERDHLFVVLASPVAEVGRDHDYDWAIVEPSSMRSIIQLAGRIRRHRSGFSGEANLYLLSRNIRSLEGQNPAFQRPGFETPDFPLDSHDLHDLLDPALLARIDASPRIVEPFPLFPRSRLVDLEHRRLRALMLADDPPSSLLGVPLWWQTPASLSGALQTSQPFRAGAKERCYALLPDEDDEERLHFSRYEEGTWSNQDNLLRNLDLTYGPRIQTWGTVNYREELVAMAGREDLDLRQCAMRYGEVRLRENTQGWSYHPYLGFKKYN
# B1: 54 bp target dsDNA (dsDNA)
# DNA 1: GGAAGCCATCCAGGTAGACGCGGACATCAAGCCCGCCGTGAAGGTGCAGCTGCT
# DNA 2: AGCAGCTGCACCTTCACGGCGGGCTTGATGTCCGCGTCTACCTGGATGGCTTCC
# B2: 54 nt ssDNA (ssDNA)
# DNA: GGAAGCCATCCAGGTAGACGCGGACATCAAGCCCGCCGTGAAGGTGCAGCTGCT
# B3: Cas2/3 (enzyme)
# chain: MNILLVSQCEKRALSETRRILDQFAERRGERTWQTPITQAGLDTLRRLLKKSARRNTAVACHWIRGRDHSELLWIVGDASRFNAQGAVPTNRTCRDILRKEDENDWHSAEDIRLLTVMAALFHDIGKASQAFQAKLRNRGKPMADAYRHEWVSLRLFEAFVGPGSSDEDWLRRLADKRETGDAWLSQLARDDRQSAPPGPFQKSRLPPLAQAVGWLIVSHHRLPNGDHRGSASLARLPAPIQSQWCGARDADAKEKAACWQFPHGLPFASAHWRARTALCAQSMLERPGLLARGPALLHDSYVMHVSRLILMLADHHYSSLPADSRLGDPNFPLHANTDRDSGKLKQRLDEHLLGVALHSRKLAGTLPRLERQLPRLARHKGFTRRVEQPRFRWQDKAYDCAMACREQAMEHGFFGLNLASTGCGKTLANGRILYALADPQRGARFSIALGLRSLTLQTGQAYRERLGLGDDDLAILVGGSAARELFEKQQERLERSGSESAQELLAENSHVHFAGTLEDGPLREWLGRNSAGNRLLQAPILACTIDHLMPASESLRGGHQIAPLLRLMTSDLVLDEVDDFDIDDLPALSRLVHWAGLFGSRVLLSSATLPPALVQGLFEAYRSGREIFQRHRGAPGRATEIRCAWFDEFSSQSSAHGAVTSFSEAHATFVAQRLAKLEQLPPRRQAQLCTVHAAGEARPALCRELAGQMNTWMADLHRCHHTEHQGRRISFGLLRLANIEPLIELAQAILAQGAPEGLHVHLCVYHSRHPLLVRSAIERQLDELLKRSDDDAAALFARPTLAKALQASTERDHLFVVLASPVAEVGRDHDYDWAIVEPSSMRSIIQLAGRIRRHRSGFSGEANLYLLSRNIRSLEGQNPAFQRPGFETPDFPLDSHDLHDLLDPALLARIDASPRIVEPFPLFPRSRLVDLEHRRLRALMLADDPPSSLLGVPLWWQTPASLSGALQTSQPFRAGAKERCYALLPDEDDEERLHFSRYEEGTWSNQDNLLRNLDLTYGPRIQTWGTVNYREELVAMAGREDLDLRQCAMRYGEVRLRENTQGWSYHPYLGFKKYN
# Assays:
# Cas2/3 (P. aeruginosa) = Cas2/3 (P. aeruginosa) (UniProt Q02ML8); assay: SPR
# [1] = molecular target: Csy complex (P. aeruginosa) (UniProt Q02ML9); assay: MST
# [2] = molecular target: Csy complex (Cas8f, Cas5f, Cas7f, Cas6f, crRNA);Cas2/3 (Pseudomonas aeruginosa;Pseudomonas …, UniProt Q02ML9;Q02MM0;Q02MM1;Q02MM2;Q02ML8 1-434;1-327;1-342;1-187;1-1076, |); assay: EMSA
# [3] = molecular target: T1, Csy complex (Cas8f, Cas5f, Cas7f, …); assay: EMSA
# Cas2/3 = molecular target: T2, Cas2/3; assay: EMSA
# AcrIF23 (P. aeruginosa) = assay: MST
# AcrIF3 (P. aeruginosa) = assay: MST
molecule,measurement,setting,value
AcrIF23 (natural protein),Kd,Cas2/3 (P. aeruginosa),3360 nM
AcrIF1 (natural protein),Kd,[1],420 nM
B1,binding result,[2],binds
same,binding result,[3],binds
B2,binding result,Cas2/3,binds
B3,Kd,AcrIF23 (P. aeruginosa),1200 nM
same,Kd,AcrIF3 (P. aeruginosa),31 nM
